US20150023979A1 (VALDOSPAN, published 2015)

Experiments:
[1] = biological target: T1, HPV18 E7 protein, recombinant (His-TEV-E7 fusion from E. coli) (Human Papilloma Virus type 18 (HPV18), UniProt P06788 1-105, CKII phosphorylation of the consensus site serines in the antigen preparation of Example 2; biotin on primary amines in the SPR assay); experiment: ELISA and dot-blot, semiquantitative crossreactivity
T1 construct: mature; also called VE7_HPV18; not shown: N-terminal 6x Histidine tag and TEV cleavage site of the vector
T1 sequence: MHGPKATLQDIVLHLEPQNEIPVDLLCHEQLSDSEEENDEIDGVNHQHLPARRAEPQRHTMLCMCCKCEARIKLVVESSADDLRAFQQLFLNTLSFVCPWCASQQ

[2] = biological target: T1, HPV18 E7 protein, recombinant …; experiment: SPR (BIAcore X100), biotin-E7 on streptavidin SA chip, antibody as analyte, bivalent analyte fit, 25 C
[3] = biological target: T2, HPV45 E7 protein, recombinant (His-TEV-E7 fusion from E. coli) (Human Papilloma Virus type 45 (HPV45), UniProt P21736 1-106, CKII phosphorylation of the consensus site serines in the antigen preparation of Example 2; biotin on primary amines in the SPR assay); experiment: as above
T2 construct: mature; also called VE7_HPV45; not shown: N-terminal 6x Histidine tag and TEV cleavage site of the vector
T2 sequence: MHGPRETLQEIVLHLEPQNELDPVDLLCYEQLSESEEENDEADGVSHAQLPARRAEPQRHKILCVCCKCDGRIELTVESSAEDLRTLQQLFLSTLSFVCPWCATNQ

[4] = biological target: T3, HPV58 E7 protein, recombinant (His-TEV-E7 fusion from E. coli) (Human Papilloma Virus type 58 (HPV58), UniProt P26557 1-98, CKII phosphorylation of the consensus site serines in the antigen preparation of Example 2); experiment: ELISA, HPV58E7 immobilised on polystyrene plates in 3-fold dilution steps, detected with ACAB452
T3 construct: mature; also called VE7_HPV58; not shown: N-terminal 6x Histidine tag and TEV cleavage site of the vector
T3 sequence: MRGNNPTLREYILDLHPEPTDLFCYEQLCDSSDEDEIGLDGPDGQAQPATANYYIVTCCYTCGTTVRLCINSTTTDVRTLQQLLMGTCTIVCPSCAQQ

[5] = biological target: T4, HPV52 E7 protein, recombinant (His-TEV-E7 fusion from E. coli) (Human Papilloma Virus type 52 (HPV52), UniProt P36831 1-99, CKII phosphorylation of the consensus site serines in the antigen preparation of Example 2); experiment: ELISA, HPV52E7 immobilised on polystyrene plates in 3-fold dilution steps, detected with ACAB452
T4 construct: mature; also called VE7_HPV52; not shown: N-terminal 6x Histidine tag and TEV cleavage site of the vector
T4 sequence: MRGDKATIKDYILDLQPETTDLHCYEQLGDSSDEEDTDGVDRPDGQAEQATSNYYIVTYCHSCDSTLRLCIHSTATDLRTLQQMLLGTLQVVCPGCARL

[6] = biological target: T5, HPV31 E7 protein, recombinant (His-TEV-E7 fusion from E. coli) (Human Papilloma Virus type 31 (HPV31), UniProt P17387 1-98, CKII phosphorylation of the consensus site serines in the antigen preparation of Example 2); experiment: ELISA, HPV31E7 immobilised on polystyrene plates in 3-fold dilution steps, detected with ACAB452; no concentrations printed on the X axis
T5 construct: mature; also called VE7_HPV31; not shown: N-terminal 6x Histidine tag and TEV cleavage site of the vector
T5 sequence: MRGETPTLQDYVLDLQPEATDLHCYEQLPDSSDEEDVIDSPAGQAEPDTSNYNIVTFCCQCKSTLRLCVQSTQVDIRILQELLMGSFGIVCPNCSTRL

B1: ACAB164 (antibody, V domains shown)
VH: EVQLQQSGLALVQPGASVKISCRTSGYTFTEYTLHWVKQSHGKSLEWIGGINPNNGSPKYNQKFKGKATLTVDKSSSTAYMELRSLTSEDSAVYYCARLDINSFFDYWGQGTTLTVSS
VL: DVVMTQSPLSLPVSLGDQASISCRSSQSLVHSNGNTYLQWYLQKPGQSPKLLIYKLSNRFSGVPDRFSGSGSGTDFTLKISRVEAEDLGVYSCSQTTHVPPTFGGGTKLEIKR
notes: the printed entries run on into the first residues of the constant domains; also called HPV16E7 IgG2a antibody ACAB164
[1]
  binding result: no binding

B2: ACAB452 (antibody, IgG1, V domains shown)
VH: DVQLQESGPGLVKPSQSLSLTCTVTGYSITSDYAWNWIRQFPGNKLEWVGYITYSGSTNYNPSLKSRISITRDTSKNQFFLQFNSVTSEDTATYFCARSWFAYWGQGTLVTVSS
VL: DIVMTQTPLSLPVSLGDQASISCRSSQSLVHSNGNTYLHWFLQKPGQSPKLLIYKVSNRFSGVPDRFSGSGSGTDFTLKISRVEAEDLGVYFCLQSAHVPLTFGAGTKLELTR
notes: also called HPV45E7 IgG1 antibody ACAB452
[2]
  kon: 94700 M⁻¹ s⁻¹
[3]
  Kd: 10.6 nM
  kon: 52100 M⁻¹ s⁻¹
[4]
  binding result: no binding (tested: 800 nM immobilised antigen (per legend))
[5]
  binding result: no binding (tested: 800 nM immobilised antigen (per legend))
[6]
  binding result: binds
